What all share (assay): cell_activity
The test system of data set [1] is TALETRE#4-KRAB (synthetic (Xanthomonas TALE)). The following applies: 50 ng, against TALETRE#4-VP16-induced AmCyan.
For data set [2], the system named is TALETRE#3-KRAB (synthetic (Xanthomonas TALE)). The following applies: 50 ng, against TALETRE#4-VP16-induced AmCyan.
The subject of data set [3] is TALECMV-KRAB (synthetic (Xanthomonas TALE)). The following applies: 100 ng, CMV-mKate-PEST in HEK293; only 19% on TRE/CMVmin AmCyan at 50 ng.

For “ATCAGTGATAGAGAAC (double strand) [TRE target of TALETRE#4]”, in data set [1], the activity came out at 80 % repression.
Consider “CCCTATCAGTGAT (double strand) [TRE target of TALETRE#3]”, for which the activity in data set [2] was 84 % repression.
“CTATATAAGCAGAGCT (double strand) [CMV TATA box region target]” came in with an activity in data set [3] of 93 % repression.

Source of the values: patent US20160369268.
